PMC7573975

Target: Red_a PSI complex (one PSI monomer of the trimer; chimeric Photosystem I of Synechocystis PCC 6803) (Synechocystis sp. PCC6803 | Synechocystis sp. PCC6803 (endogenous)) (UniProt P29254)
Test: cryo-EM structure; single particle Cryo-EM of the purified Red_a PSI trimer; 30 mM Tricine-NaOH pH 8, 150 mM NaCl, 0.02% DDM; 1 mg/ml chlorophyll; C1, symmetry expansion and multibody refinement with each monomer as a body

stoichiometry N: 3
Substance: Red_a PSI complex (one PSI monomer of the trimer; chimeric Photosystem I of Synechocystis PCC 6803) (from UniProt P29254 1-751; P29255 1-731; P32422 1-81; P72712 1-86; P37277 1-157)
